We go through 2 molecules from paper PMC12607020, “NITAC-mediated ISGylation of eIF4E2 attenuates GSK3β proline-directed kinase activity, conferring cytoprotection” (The Journal of Biological Chemistry, 2025).

This assay deals with T1, GST-eIF4E2 (UniProt O60573 1-245).
T1 construct: eukaryotic translation initiation factor 4E family member 2 (eIF4E2, 4EHP); also called GST-tagged eIF4E2; source: E. coli BL21, purified (glutathione sepharose beads)
T1 sequence (looked up): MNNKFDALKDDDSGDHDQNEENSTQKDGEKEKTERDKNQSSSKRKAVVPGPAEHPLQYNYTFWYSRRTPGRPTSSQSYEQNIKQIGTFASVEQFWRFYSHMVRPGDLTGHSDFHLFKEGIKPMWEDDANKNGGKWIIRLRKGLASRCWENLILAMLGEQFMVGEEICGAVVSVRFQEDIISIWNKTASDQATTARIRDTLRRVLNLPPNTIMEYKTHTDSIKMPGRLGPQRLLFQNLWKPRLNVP
In words: pull-down; GST pull-down: 1 nM His6-tagged and 1 nM GST-tagged protein in 50 mM Hepes pH 7.5, 50 mM NaCl, 2 mM EDTA, 0.1% NP-40, 10% glycerol, 2 h at 4 °C; glutathione-sepharose beads; immunoblot. The settings on record: both partners purified. For orientation: A western blot detects proteins with antibodies after separation by electrophoresis.

B1: His6-tagged Nb.28E11 (VHH)
VHH: QVQLQESGGGLVQAGGSLRLSCAASGRTFSSYAMGWFRQAPGKEREFVAAISSGGSITNYADSVKGRFTISRDNAKNTVYLQMNSLKPEDTAVYYCAARYHSLYYGYWGQGTQVTVSS
notes: nanobody from a synthetic yeast-display library; also called His6-Nb.28E11; source: E. coli BL21, purified (Ni-NTA)
As to B1, the binding result is recorded as “binds”.

B2: His6-tagged Nb.30C7 (VHH)
VHH: QVQLQESGGGLVQAGGSLRLSCAASGYTFSSNVMGWFRQAPGKEREFVAAINSGGGRTNYADSVKGRFTISRDNAKNTVYLQMNSLKPEDTAVYYCAAYGRANSSYNYGYWGQGTQVTVSS
notes: nanobody from a synthetic yeast-display library; also called His6-Nb.30C7; source: E. coli BL21, purified (Ni-NTA)
With B2, the binding result is reported as “binds”.
